Laboratory results as given in patent US20140335568.
pIC50, pKd: −log10 of the molar value.

What was measured:
[1] = test system: scFv clone C1 (anti-dsDNA d(AT)4 recombinant antibody) (synthetic (Tomlinson I/J human scFv phage library)); experiment: ELONA; conditions: ELISA
[2] = test system: scFv clone C1 (anti-dsDNA d(AT)4 recombinant antibody) (synthetic (Tomlinson I/J human scFv phage library)); experiment: competition; conditions: competition ELISA against immobilized 35 bp dsDNA, 50% reduction, 1.25x10^7 M-1; discussion gives about 50-80 nM

Row | Sequence | pIC50 ([1]; varying immobilized dsDNA at fixed scFv (3 uM)) | pIC50 ([1]; varying scFv with 25 pmol immobilized dsDNA, single site isotherm, 5xSSCT immobilization, RT) | pKd [2]
1 | AAAAGACTCACTGTTTGTCTGTCGTTCTAGGATATATAT / ATATATATCCTAGAACGACAGACAAACAGTGAGTC [35 bp dsDNA epitope (ssDNA:ssDNA')] | 7.51 | 6.62 | 
2 | ATATATATCCTAGAACGACAGACAAACAGTGAGTCCGCATTGTTACAT (double strand) [Icomp (Icomp:Icomp')] |  |  | 7.10
